Numbering of substitutions follows the chain as printed.
T1: HuCDCP1-C (Homo sapiens, UniProt Q9H5V8)
T1 construct: made in house; host or cells: HEK-293T
T1 sequence (Q9H5V8 30-667): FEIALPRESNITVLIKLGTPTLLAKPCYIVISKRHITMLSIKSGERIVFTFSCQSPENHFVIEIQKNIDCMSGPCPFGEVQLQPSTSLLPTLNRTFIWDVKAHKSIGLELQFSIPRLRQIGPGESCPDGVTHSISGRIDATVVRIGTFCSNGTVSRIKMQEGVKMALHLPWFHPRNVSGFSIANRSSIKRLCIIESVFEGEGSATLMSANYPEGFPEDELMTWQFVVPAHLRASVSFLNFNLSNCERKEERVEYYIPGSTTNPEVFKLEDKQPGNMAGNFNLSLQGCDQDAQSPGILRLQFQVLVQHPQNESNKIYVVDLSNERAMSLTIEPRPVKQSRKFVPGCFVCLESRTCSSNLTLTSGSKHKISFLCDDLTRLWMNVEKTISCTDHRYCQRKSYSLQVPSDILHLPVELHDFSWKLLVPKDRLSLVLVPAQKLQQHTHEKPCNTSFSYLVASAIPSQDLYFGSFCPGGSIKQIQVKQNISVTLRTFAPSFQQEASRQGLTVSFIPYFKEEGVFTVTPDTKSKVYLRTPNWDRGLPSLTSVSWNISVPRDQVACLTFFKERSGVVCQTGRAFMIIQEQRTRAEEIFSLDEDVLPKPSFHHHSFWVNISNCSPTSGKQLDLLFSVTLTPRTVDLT

B1: 1CP-112: humanized anti-CDCP1 antibody produced by 8E5; VH SEQ ID NO: 347, VL SEQ ID NO: 357 (antibody, V domains shown)
VH: QVQLVQSGSELKKPGASVKVSCKASGYTLTDFSMHWVRQAPGQGLEWMGWINTETGAPTYADDFKGRFVFSLDTSVSTAYLQISSLKAEDTAVYYCSRGRDYDPHFDYWGQGTLVTVSS
VL: EIVLTQSPATLSLSPGERATLSCRASQSISDFLHWYQQKPGQAPRLLIKYASQSISGIPARFSGSGPGSDFTLTISSVEPEDFAVYYCQSAHSFPYTFGQGTKLEIK
modifications: humanized antibody 8E5 heavy chain variable region 01; humanized antibody 8E5 light chain variable region 01
B2: 1CP-114: humanized anti-CDCP1 antibody produced by 8E5; VH SEQ ID NO: 349, VL SEQ ID NO: 357 (antibody, V domains shown)
VH: B1 VH with A16E, F70L, A88S
VL: B1 VL
modifications: humanized antibody 8E5 heavy chain variable region 03; humanized antibody 8E5 light chain variable region 01
B3: 1CP-113: humanized anti-CDCP1 antibody produced by 8E5; VH SEQ ID NO: 348, VL SEQ ID NO: 357 (antibody, V domains shown)
VH: B1 VH with F70L
VL: B1 VL
modifications: humanized antibody 8E5 heavy chain variable region 01; humanized antibody 8E5 light chain variable region 01
B4: 1CP-153: humanized anti-CDCP1 antibody produced by 8C9; VH SEQ ID NO: 345, VL SEQ ID NO: 354 (antibody, V domains shown)
VH: EVQLVESGGGLVQPGRSLRLSCTTSGLTFTHYHMSWVRQAPGKGPEWVAIIRNKAYGYTTDYSASVRGRFTISRDDSKSILYLQMNSLKTEDTAVYYCVREGGYGYDGTFAYWGQGTLVTVSS
VL: DIQMTQSPSSLSASVGDRVTITCRASESVDNYGISFMNWFQQKPGQAPKLLIYAASNQGSGVPSRFSGSGSGTDFTLTISSMQPEDFATYYCQQSKEVPRTFGGGTKVEIK
modifications: humanized antibody 8C9 heavy chain variable region 03; humanized antibody 8C9 light chain variable region 01
B5: 1CP-154: humanized anti-CDCP1 antibody produced by 8C9; VH SEQ ID NO: 346, VL SEQ ID NO: 354 (antibody, V domains shown)
VH: B4 VH with A40P, G44A
VL: B4 VL
modifications: humanized antibody 8C9 heavy chain variable region 04; humanized antibody 8C9 light chain variable region 01
B6: 1CP-155: humanized anti-CDCP1 antibody produced by 8C9; VH SEQ ID NO: 343, VL SEQ ID NO: 355 (antibody, V domains shown)
VH: B4 VH with T24A, V37F, P45L
VL: B4 VL with A47P
modifications: humanized antibody 8C9 heavy chain variable region 01; humanized antibody 8C9 light chain variable region 02
B7: 1CP-160: humanized anti-CDCP1 antibody produced by 8C9; VH SEQ ID NO: 344, VL SEQ ID NO: 356 (antibody, V domains shown)
VH: B4 VH with P45L
VL: B4 VL with A47P, Y91F
modifications: humanized antibody 8C9 heavy chain variable region 02; humanized antibody 8C9 light chain variable region 03
B8: 1CP-159: humanized anti-CDCP1 antibody produced by 8C9; VH SEQ ID NO: 343, VL SEQ ID NO: 356 (antibody, V domains shown)
VH: B4 VH with T24A, V37F, P45L
VL: B4 VL with A47P, Y91F
modifications: humanized antibody 8C9 heavy chain variable region 01; humanized antibody 8C9 light chain variable region 03
B9: 1CP-162: humanized anti-CDCP1 antibody produced by 8C9; VH SEQ ID NO: 346, VL SEQ ID NO: 356 (antibody, V domains shown)
VH: B4 VH with A40P, G44A
VL: B4 VL with A47P, Y91F
modifications: humanized antibody 8C9 heavy chain variable region 04; humanized antibody 8C9 light chain variable region 03
B10: 1CP-161: humanized anti-CDCP1 antibody produced by 8C9; VH SEQ ID NO: 345, VL SEQ ID NO: 356 (antibody, V domains shown)
VH: B4 VH
VL: B4 VL with A47P, Y91F
modifications: humanized antibody 8C9 heavy chain variable region 03; humanized antibody 8C9 light chain variable region 03
B11: 1CP-158: humanized anti-CDCP1 antibody produced by 8C9; VH SEQ ID NO: 346, VL SEQ ID NO: 355 (antibody, V domains shown)
VH: B4 VH with A40P, G44A
VL: B4 VL with A47P
modifications: humanized antibody 8C9 heavy chain variable region 04; humanized antibody 8C9 light chain variable region 02
B12: 1CP-156: humanized anti-CDCP1 antibody produced by 8C9; VH SEQ ID NO: 344, VL SEQ ID NO: 355 (antibody, V domains shown)
VH: B4 VH with P45L
VL: B4 VL with A47P
modifications: humanized antibody 8C9 heavy chain variable region 02; humanized antibody 8C9 light chain variable region 02

target: T1, HuCDCP1-C; assay: Caterra affinity of humanized anti-CDCP1 antibodies; type: binding; settings: HuCDCP1-C 2 μg/ml immobilized
Experimental: The humanized anti-CDCP1 antibodies obtained from Example 11 were subjected to gene cloning, constructed into pTT5 expression vector for a small amount of expression in CHO cells (Expi-CHOS: Gibco A29127), and purified with an Fc affinity column (AT Protein A Diamond Plus. No. AA402312). Antibody purity was analyzed by HPLC and determined by Nanodrop. High-throughput affinity assay was carried out for a small amount of antibodies by Caterra.

B1 and B2 are within 1.5-fold of each other in “ka” value: 136000 M⁻¹ s⁻¹ for the first, 161000 M⁻¹ s⁻¹ for the second.

B3 and B4 are within 1.5-fold of each other in “ka” value: 143000 M⁻¹ s⁻¹ for the first, 108000 M⁻¹ s⁻¹ for the second.

Going from B5 to B6, the “ka” value falls from 118000 M⁻¹ s⁻¹ to 15800 M⁻¹ s⁻¹ (7.5-fold).

Going from B7 to B8, the “ka” value falls from 110000 M⁻¹ s⁻¹ to 18000 M⁻¹ s⁻¹ (6.1-fold).

B9 and B10 are within 1.5-fold of each other in “ka” value: 113000 M⁻¹ s⁻¹ for the first, 114000 M⁻¹ s⁻¹ for the second.

B11 and B12 are within 1.5-fold of each other in “ka” value: 109000 M⁻¹ s⁻¹ for the first, 123000 M⁻¹ s⁻¹ for the second.

Going from B1 to B2, the “kd” value rises from 5e-05 s⁻¹ to 0.00246 s⁻¹ (49-fold).

Going from B3 to B4, the “kd” value rises from 5.9e-05 s⁻¹ to 0.000388 s⁻¹ (6.6-fold).

First: B5
Second: B6
The “kd” value of the first is 1.7-fold lower: 0.000346 s⁻¹ for the first, 0.000579 s⁻¹ for the second.

Compared with B7, B8 is 1.8-fold higher in “kd” value: 0.00042 s⁻¹ for the first, 0.000767 s⁻¹ for the second.

B9 and B10 are within 1.5-fold of each other in “kd” value: 0.000305 s⁻¹ for the first, 0.000365 s⁻¹ for the second.

B11 and B12 are within 1.5-fold of each other in “kd” value: 0.000321 s⁻¹ for the first, 0.000441 s⁻¹ for the second.

— patent US20260250410A1, “ANTIBODY AND USE THEREOF” (SICHUAN HUIYU PHARMACEUTICAL CO., LTD., priority 2022, published 2026)
